This is an account of results in patent publication US10239925B2, “Peptides and combination of peptides for use in immunotherapy against ovarian cancer and other cancers” (IMMATICS BIOTECHNOLOGIES GMBH, priority 2015, dated 2019).

This experiment has as its target HLA-A*02:01 (Homo sapiens, UniProt P04439, D140Y/D185E/D98H/E176V/E277Q/G131W/G231S/I119V/I121R/I166T/I218V/L300P/L318F/N151K/N90K/P208A/P217A/Q86G/Q94H/R138H/R169H/T345S). Put plainly: MHC binding assay (UV-ligand exchange, anti-β2m ELISA, peptide exchange yield). As to conditions: binding to HLA-A*02:01. The procedure, abridged: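 Peptide-MHC complexes formed by UV-ligand exchange, cleaving a UV-sensitive placeholder peptide in favour of the test peptide. Exchange yield measured by ELISA: monomers diluted 100-fold onto streptavidin-coated plates, 1 h 37 °C, detected with 2 ug/ml HRP anti-β2m and TMB, absorbance at 450 nm.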
(ELISA stands for enzyme-linked immunosorbent assay.)
On to “594 (IMLKGDNITL; listed as Homo sapiens) [compound 594]”, for which the “Peptide exchange (MHC class I binding score, peptide exchange yield)” value (“Peptide exchange” for short) was ““+++” (>50 = +++)”.
The entry for “252 (LLIGTDVSL; listed as Homo sapiens) [compound 252]” is ““+++” (>50 = +++)”; for “309 (GLFDGVPTTA; listed as Homo sapiens) [compound 309]” it is ““+++” (>50 = +++)”.
The entry for “21 (VLDELDMEL; listed as Homo sapiens) [compound 21]” is ““++” (>20% = ++)”.
For the substance “155 (RVANLHFPSV; listed as Homo sapiens) [compound 155]”, the “Peptide exchange” value is ““+++” (>50 = +++)”.
For the substance “161 (ALLEGVNTV; listed as Homo sapiens) [compound 161]”, the “Peptide exchange” value is listed as ““+++” (>50 = +++)”.
For “286 (YLFPGIPEL; listed as Homo sapiens) [compound 286]”, the “Peptide exchange” value was ““+++” (>50 = +++)”.
Turning to “22 (IMEENPGIFAV; listed as Homo sapiens) [compound 22]”, the “Peptide exchange” value is on record as ““+++” (>50 = +++)”.
Turning to “51 (LLPDLEFYV; listed as Homo sapiens) [compound 51]”, the “Peptide exchange” value was ““++++” (>75% = ++++)”.
As for “234 (ALMEDTGRQML; listed as Homo sapiens) [compound 234]”, the “Peptide exchange” value is reported as ““++” (>20% = ++)”.
On to “580 (LLMENAERV; listed as Homo sapiens) [compound 580]”, for which the “Peptide exchange” value was ““++” (>20% = ++)”.
“136 (YLADPSNLFVV; listed as Homo sapiens) [compound 136]”: the “Peptide exchange” value is given as ““+++” (>50 = +++)”.
Consider “154 (ALDDGTPAL; listed as Homo sapiens) [compound 154]”, for which the “Peptide exchange” value is ““++” (>20% = ++)”.
The result for “250 (ALSEEGLLVYL; listed as Homo sapiens) [compound 250]” reads ““+++” (>50 = +++)”; that for “546 (VMIAGKVAVV; listed as Homo sapiens) [compound 546]”, ““+++” (>50 = +++)”; that for “83 (ILAPTVMMI; listed as Homo sapiens) [compound 83]”, ““+++” (>50 = +++)”.
In the case of “596 (ALLDQTKTLAESAL; listed as Homo sapiens) [compound 596]”, the “Peptide exchange” value is ““+++” (>50 = +++)”.
In the case of “490 (FLLQHVQEL; listed as Homo sapiens) [compound 490]”, the “Peptide exchange” value is listed as ““+++” (>50 = +++)”.
In the case of “346 (LLDSKVPSV; listed as Homo sapiens) [compound 346]”, the “Peptide exchange” value is ““+++” (>50 = +++)”.
With “273 (NLFQSVREV; listed as Homo sapiens) [compound 273]”, the “Peptide exchange” value was ““++” (>20% = ++)”.
For “561 (YLQLTQSEL; listed as Homo sapiens) [compound 561]”, the “Peptide exchange” value is ““+++” (>50 = +++)”.
As to “192 (KMLDGASFTL; listed as Homo sapiens) [compound 192]”, the “Peptide exchange” value was ““+++” (>50 = +++)”.
On to “332 (YLISELEAA; listed as Homo sapiens) [compound 332]”, for which the “Peptide exchange” value is reported as ““+++” (>50 = +++)”.
Take “394 (LLAVIGGLVYL; listed as Homo sapiens) [compound 394]”: the “Peptide exchange” value is given as ““+++” (>50 = +++)”.
Consider “362 (TLYGLSVLL; listed as Homo sapiens) [compound 362]”, for which the “Peptide exchange” value is ““+++” (>50 = +++)”.
Consider “308 (SQYSGQLHEV; listed as Homo sapiens) [compound 308]”, for which the “Peptide exchange” value is given as ““+++” (>50 = +++)”.
As to “491 (GLNDRSDAV; listed as Homo sapiens) [compound 491]”, the “Peptide exchange” value is ““++” (>20% = ++)”.
Regarding “146 (SLATAGDGLIEL; listed as Homo sapiens) [compound 146]”, the “Peptide exchange” value is ““++” (>20% = ++)”.
The entry for “520 (LAVHPSGVAL; listed as Homo sapiens) [compound 520]” is ““+” (>10% = +)”.
Turning to “182 (MLLEAPGIFL; listed as Homo sapiens) [compound 182]”, the “Peptide exchange” value was ““+++” (>50 = +++)”.
Take “462 (KLAKQPETV; listed as Homo sapiens) [compound 462]”: the “Peptide exchange” value was ““+++” (>50 = +++)”.
The result for “510 (KLYSVVSQL; listed as Homo sapiens) [compound 510]” reads ““++” (>20% = ++)”.
The result for “475 (LLLNEEALAQI; listed as Homo sapiens) [compound 475]” reads ““+++” (>50 = +++)”; that for “328 (ALNDQVFEI; listed as Homo sapiens) [compound 328]”, ““+++” (>50 = +++)”; that for “486 (AVMESIQGV; listed as Homo sapiens) [compound 486]”, ““+++” (>50 = +++)”.
On to “592 (RLLSAAENFL; listed as Homo sapiens) [compound 592]”, for which the “Peptide exchange” value was ““+++” (>50 = +++)”.
The result for “447 (QLVPALAKV; listed as Homo sapiens) [compound 447]” reads ““++” (>20% = ++)”; that for “208 (KISPVTFSV; listed as Homo sapiens) [compound 208]”, ““+++” (>50 = +++)”; that for “472 (KLLEVSDDPQV; listed as Homo sapiens) [compound 472]”, ““+++” (>50 = +++)”.
Turning to “388 (SLTIDGIRYV; listed as Homo sapiens) [compound 388]”, the “Peptide exchange” value was ““+++” (>50 = +++)”.
Consider “193 (QLLDADGFLNV; listed as Homo sapiens) [compound 193]”, for which the “Peptide exchange” value is ““+++” (>50 = +++)”.
For “375 (SLTETIEGV; listed as Homo sapiens) [compound 375]”, the “Peptide exchange” value is recorded as ““++” (>20% = ++)”.
As for “618 (VLFDSESIGIYV; listed as Homo sapiens) [compound 618]”, the “Peptide exchange” value is recorded as ““+++” (>50 = +++)”.
Regarding “92 (YLIPFTGIVGL; listed as Homo sapiens) [compound 92]”, the “Peptide exchange” value was ““++” (>20% = ++)”.
Regarding “560 (ALWDIETGQQTTT; listed as Homo sapiens) [compound 560]”, the “Peptide exchange” value is on record as ““+++” (>50 = +++)”.
In the case of “442 (GLLGGGGVLGV; listed as Homo sapiens) [compound 442]”, the “Peptide exchange” value is ““+++” (>50 = +++)”.
Take “147 (SLLEAVSFL; listed as Homo sapiens) [compound 147]”: the “Peptide exchange” value is listed as ““+++” (>50 = +++)”.
As to “450 (FMIDASVHPTL; listed as Homo sapiens) [compound 450]”, the “Peptide exchange” value is ““+++” (>50 = +++)”.
Take “466 (VLIANLEKL; listed as Homo sapiens) [compound 466]”: the “Peptide exchange” value is recorded as ““++++” (>75% = ++++)”.
The entry for “265 (LLFGGTKTV; listed as Homo sapiens) [compound 265]” is ““++” (>20% = ++)”; for “464 (ALNDCIYSV; listed as Homo sapiens) [compound 464]” it is ““+++” (>50 = +++)”.
On to “434 (KVSNSGITRV; listed as Homo sapiens) [compound 434]”, for which the “Peptide exchange” value was ““++” (>20% = ++)”.
“231 (FLSPQQPPLLL; listed as Homo sapiens) [compound 231]”: the “Peptide exchange” value is on record as ““++” (>20% = ++)”.
The entry for “359 (YLLPESVDL; listed as Homo sapiens) [compound 359]” is ““+++” (>50 = +++)”.
For the substance “42 (VLLQKIVSA; listed as Homo sapiens) [compound 42]”, the “Peptide exchange” value was ““+++” (>50 = +++)”.
“522 (TLWYRSPEV; listed as Homo sapiens) [compound 522]”: the “Peptide exchange” value is reported as ““++” (>20% = ++)”.
On to “392 (ALLHPQGFEV; listed as Homo sapiens) [compound 392]”, for which the “Peptide exchange” value was ““++” (>20% = ++)”.
The result for “206 (VLQEGKLQKLAQL; listed as Homo sapiens) [compound 206]” reads ““+++” (>50 = +++)”; that for “173 (LLDSASAGLYL; listed as Homo sapiens) [compound 173]”, ““+++” (>50 = +++)”.
In the case of “14 (AAYGGLNEKSFV; listed as Homo sapiens) [compound 14]”, the “Peptide exchange” value is ““+++” (>50 = +++)”.
On to “345 (VIWKALIHL; listed as Homo sapiens) [compound 345]”, for which the “Peptide exchange” value was ““+++” (>50 = +++)”.
